# Measured values published in the nanobody polyreactivity screen of Harvey et al. (2022).
# Assay: yeast display, Sf9 membrane polyspecificity reagent, FACS + sequencing; frameworks hold sequencing errors
# Procedure, shortened: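 A synthetic nanobody library was expressed on Saccharomyces cerevisiae BJ5465 by galactose induction for 36–48 hours. The library was stained for 1 hour at 4 °C with 10% biotinylated, detergent-solubilized Sf9 membrane reagent and enriched with streptavidin microbeads before FACS. Low and high (top ~1%) gates were set on anti-HA fluorescence for expression and streptavidin fluorescence for reagent binding, and each polyreactivity label reflects the gate of origin.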
row,Sequence,polyreactivity (PSR sort gate)
1,QVQLVESGGGLVQAGGSLRLSCAASGSIFGYYTMGWYRQAPGKERELVAAISRRGGSTYYADSVKGRFTISRDNAKKTVYLQMNSLKPEDTAVYYCAADVARSRHFEMDYWGQGTQVTVSS,high polyreactivity
2,QVQLVESGGGLVQAGGSLRLSCAASGSIFGYYTMGWYRQAPGKERELVAAITRSGATTFYADSVKGRFTISRDKAKNTVYLQMNSLKPEDTAVYYCAAQARGYTRGYWGQGTQVTVSS,high polyreactivity
3,QVQLVESGGGLVQAGGSLRLSCAASGSIFGYYTMGWYRQAPGKERELVAAITSGGSTNYADSVKGRFTISRDNAKNTVYLQMNSLKPEDTSVYYCAKVSYYPWRYDYWGQGTQVTVSS,low polyreactivity
4,QVQLVESGGGLVQAGGSLRLSCAASGSIFGYYTMGWYRQAPGKERELVAAITSGGSTNYADSVKGRFTISRDNAKNTVYLQMNSLKPEETAVYYCAKVSYYTWRYDYWGQGTQVTVSS,low polyreactivity
5,QVQLVESGGGLVQAGGSLRLSCAASGSIFGYYTMGWYRQAPGKERELVARITRGGSTYYADSVKGRFTISRDNAKNTVYLQMNSLKPEDTAVYYCAARRVNAGWTYGLRGNYWGQGTQVTVSS,low polyreactivity
6,QVQLVESGGGLVQAGGSLRLSCAASGSIFGYYVMGWYRPAPGKERELVAAITRSGSTYYADSVKGRFTISRDNAKNTVYLQMNSLKPEDTAGYYCAADGSYYWYPHTTYDYWGQGTQVTVSS,low polyreactivity
7,QVQLVESGGGLVQAGGSLRLSCAASGSIFHANAMGWYRQAPGKERELVAAITRSGRSTYYADSVKGRFTISRDNAKNTVYLQMNSLKPEDTAVYYCAARYYAGGLSSYDYWGQGTQVTVSS,high polyreactivity
8,QVQLVESGGGLVQAGGSLRLSCAASGSIFHGNAMGWYRQAPGKERELVAAITGRGVSTYYADSVKGRFTISRDNAKNTVYLQMKSLKPEDTAVYYCAAVRSKYWYYQGGYSSYGYWGQGTQVTVSS,high polyreactivity
9,QVQLVESGGGLVQAGGSLRLSCAASGSIFHIYAIGWYRQAPGKERELVAAISWRGDSTSYADSVKGRFTISRDNAKNTVYLQMNSLKPEDTAVYYCARGYGGYRGYYAKRFGYWGQGTQVTVSS,high polyreactivity
10,QVQLVESGGGLVQAGGSLRLSCAASGSIFHLYAMGWYRQAPGKEREFVAAISSSGGRTYYADSVKGRFTISRDNAKNTVYLQMNSLKPEDTAVYYCATAEQYGTKLRQVSYQYDYWGHGTQVTVSS,low polyreactivity
11,QVQLVESGGGLVQAGGSLRLSCAASGSIFHPYAMGWYRQAPGKERELVAAISGGGTNTYYADSVKGRFTISRDNAKNTVYLQMNSLKPEDTAVYYCAAERYYWGQGTQVTVSS,high polyreactivity
12,QVQLVESGGGLVQAGGSLRLSCAASGSIFHPYAMGWYRQAPGKERELVAAISKSGGNTYYADSVKGRFTISRDNAKNTVYLQMNSLKPEDTAVYYCAALDYWGQVTQVTVSS,low polyreactivity
13,QVQLVESGGGLVQAGGSLRLSCAASGSIFHPYGMGWYRQAPGKERELVARISWSTSSTNYADSVKGRFTISRDNAKNTVYLQMNSLKPEDTAVYYCAADYYVFPGYDYWGQGTQVTVSS,high polyreactivity
14,QVQLVESGGGLVQAGGSLRLSCAASGSIFHPYGMGWYRQAPGKVRELVAAMTSSGGDTYYADSVKGRFTISRDNAKNTVYLQMNSLKPEDTAVYYCAATGLPGYYAYDYWGQGTQVTVSS,low polyreactivity
15,QVQLVESGGGLVQAGGSLRLSCAASGSIFHRNTMGWYRQAPGKEREFVAGISWGGGRTYYADSVKGRFTISRDNAKNTVYLQMNSLKPEETAVYYCAAKTGGGGRLSTVYYWGQGTQVTLSS,high polyreactivity
16,QVQLVESGGGLVQAGGSLRLSCAASGSIFHRYAMGWYTQAPGKERELVAAISWSGGSTYYADSVKGRFTISRDNAKNTVYLQMNSLKPEDTAVYYCNRVAWNYGFGSSAYGYWGQGTQVTVSS,high polyreactivity
17,QVQLVESGGGLVQAGGSLRLSCAASGSIFHYNAMGWYIQAPGKERELVASISSGGRTYYADSVKGRFTISRDNAKNTVYLQMNSLKPEDTAVYYCAAENFWQTKEYDYWGQGTQVTVSS,low polyreactivity
18,QVQLVESGGGLVQAGGSLRLSCAASGSIFIANAMGWYRKAPGKERELVAAISRSGSTTYYADSVKGRFTISRDNAKNTVYLQMNSLKPEDTAVNYCNARYSLHSYYWFIYDSWGQGTQVTVSS,low polyreactivity
19,QVQLVESGGGLVQAGGSLRLSCAASGSIFIANTMGWYRQAPGKERELVAAISSDGGSTYYADSVKGRFTISRDNAKNTVYLQMNSLKPVDTAVYYCAVDGLEIGDTGFDYWGQGTQVTVSS,low polyreactivity
20,QVQLVESGGGLVQAGGSLRLSCAASGSIFIAYGMGWYRQEPGKERELVAAITVSGGNTYYADSVKGRFTISRDNAKNTVYLQMNSLKPEDTAVYYCAADYWYYYGKVLYDYWGQGTQVTVSS,low polyreactivity
21,QVQLVESGGGLVQAGGSLRLSCAASGSIFIGYAMGWYRQAPGKERELVAAITNGGRTYYADSVKGRFTISRDNAKNTVYLQMNSLKPEDTAVYYCAAVPSQTYRRTPYLWHDYWGQGTQVTVSS,high polyreactivity

row,Sequence,polyreactivity (PSR sort gate)
1,QVQLVESGGGLVQAGGSLRLSCAASGSIFIIYAMGWYRQAPGKERALVAAISRGGTSTYADSVKGRFTISRDNAKNTVYLQMNSLKPEDTAVYYCNARRSSRTNRYNYWGQGTQVTVSS,high polyreactivity
2,QVQLVESGGGLVQAGGSLRLSCAASGSIFIPYAMGWYRQAPGKERELVAAIRDSGASTYYADSVKGRFTISRDNAKNTVYLQMNSLKPEDTAVYYCAVRFYDWRYYYWGQGTQVTVSS,high polyreactivity
3,QVQLVESGGGLVQAGGSLRLSCAASGSIFIPYAMGWYRQAPGKERELVAAISRRGGSTYYADSVKGRFTISRDNAKNTVYLQMNSLKPEDTAVYYCNKDVNAYGYFEYYYWGQGTQVTVSS,low polyreactivity
4,QVQLVESGGGLVQAGGSLRLSCAASGSIFIRNAMGWYRQAPGKERELVAAISWGGARTYYADSVKWRFTISRDNAKNTVYLQMNSLKPEDTAVYYCNALNVRGNKFDYWGQGTQVSVSS,high polyreactivity
5,QVQLVESGGGLVQAGGSLRLSCAASGSIFIRNAMGWYRQAPGKERELVASISRSGAYTRYADSVKGRFTISRDNAKNTVYLQMNSLKPEDTAVYYCAVRLVNYLSYWRTYNYWGQGTQVTVSS,high polyreactivity
6,QVQLVESGGGLVQAGGSLRLSCAASGSIFIRNVMGWSRQAPGKERELVAAISSRGGSTYYADSVKGRFTISRDNAKNTVDLQMNSLKPEDTAVYYCNRYSYLFPYYWKYDYWGQGTQVTVSS,high polyreactivity
7,QVQLVESGGGLVQAGGSLRLSCAASGSIFISNAMGWYRQAPGKERELFAAINWTTGRTRYADSVKGRFTISRDNAKNTVYLQMNSLKPEDTAVYYCAARPYGGGRRSIYYYWGQGNQVTVSS,high polyreactivity
8,QVQLVESGGGLVQAGGSLRLSCAASGSIFISNAMGWYRQAPGKERELVAAISRSGARTYYADSVKGRFTISRDNAKNTVYLQMNSLKPEDTAVYYCAVDGYSPYKYDYWGQGTQVTVSS,high polyreactivity
9,QVQLVESGGGLVQAGGSLRLSCAASGSIFISNAMGWYRQAPGKERELVAAITSSGGSTYYADSVKGRFTISRDNAKNTVYLQMNSLKPEDTAVYYCAARPGRNYYYWGQGTQVTVSS,high polyreactivity
10,QVQLVESGGGLVQAGGSLRLSCAASGSIFITYAMGWYRQAPGKERELVAAIRDSGDRTYYADSVKGRFTISRDNAKNTVYLQMNSLKPEDTAVYYCTARCQEPLKYDYSGQGTQVTVSS,low polyreactivity
11,QVQLVESGGGLVQAGGSLRLSCAASGSIFITYAMGWYRQAPGKERELVAAITDSGDSTYYADSVKGRFTISRDNAKNTVYLQMISLKPEDTAVYYCAKRYYGSYSHFIRTDGYWGQGTQVTVSS,low polyreactivity
12,QVQLVESGGGLVQAGGSLRLSCAASGSIFITYARGWYRQAPGKERELVAAIRDSGDRTYYADSVKGRFTISRDNAKNTVYLQMISLKPEDTAVYYCNARWQEPLKYDYWGQGTQVTVSS,low polyreactivity
13,QVQLVESGGGLVQAGGSLRLSCAASGSIFIVNDMGWYRQAPGKERELVAAISGRGGNTNYADSVKVRFTISRDNAKNTVYLQMNSLKPEDTSVYFCAARHTRDYDYWGQGTQVTVSS,high polyreactivity
14,QVQLVESGGGLVQAGGSLRLSCAASGSIFIVYAMGWYRQAPGKERELVAAISWSGGSTYYADSVKGRFTISRDNAKNTVYLQMNSLKPEDTAVYYCAAKYTLPFRDVKYYSWGQGTQVTVSS,high polyreactivity
15,QVQLVESGGGLVQAGGSLRLSCAASGSIFIVYAMGWYRQAPGKERELVAGIRGRGGSTYYADSVKGRFTISRDNAKNTVYLQMNSLKPEDTAVYYCAANPRSYQSPYGYWGQGTQVTVSS,high polyreactivity
16,QVQLVESGGGLVQAGGSLRLSCAASGSIFIVYAMGWYRQAPGKERELVATITSGGSTNYADSVKGRFTISRDNAKNTVYVQMNSLKPEVTAVYYCAAESYWGSGVVPGYDYWGQGTQVTVSS,low polyreactivity
17,QVQLVESGGGLVQAGGSLRLSCAASGSIFIWNALGCYRQAPGKERELVAAIRSSGGTTYYADSVKGRFTISRDNAKYTVYVQMNSLKPEDTAVYYCARRGYSSSYRYPRYYYWGQGTQVTVSS,high polyreactivity
18,QVQLVESGGGLVQAGGSLRLSCAASGSIFIWNAMGWYRQAPGKERELVAAISFSGGSTYYADSVKGRFTISRDNAKNTVYLQMNSLKPEDTAVYYCAADSFSGRYYWWEYDYWGQGTQVTVSS,low polyreactivity
19,QVQLVESGGGLVQAGGSLRLSCAASGSIFIWNAMGWYRQAPGKERELVAAISFSGGSTYYADSVKGRFTISRDNAKNTVYLQMNSLKPEDTAVYYCAADSYSGRYYWWEYDYWGQGTQVTVSS,low polyreactivity
20,QVQLVESGGGLVQAGGSLRLSCAASGSIFIYNARGWYRQAPGKERELVAAINWTGGSTYYADSVKGRFTISRDNAKNTVYLQMNSLKPEDTAVYYCNALRYGSTRGYDYWGQGTQVTVSS,high polyreactivity
